T1: monkey MSLN on HEK293T-monkey MSLN recombinant cells (monkey)
T1 construct: Full-length precursor as transfected; processing on the cell is not described; also called HEK293-monkey MSLN
T1 chain: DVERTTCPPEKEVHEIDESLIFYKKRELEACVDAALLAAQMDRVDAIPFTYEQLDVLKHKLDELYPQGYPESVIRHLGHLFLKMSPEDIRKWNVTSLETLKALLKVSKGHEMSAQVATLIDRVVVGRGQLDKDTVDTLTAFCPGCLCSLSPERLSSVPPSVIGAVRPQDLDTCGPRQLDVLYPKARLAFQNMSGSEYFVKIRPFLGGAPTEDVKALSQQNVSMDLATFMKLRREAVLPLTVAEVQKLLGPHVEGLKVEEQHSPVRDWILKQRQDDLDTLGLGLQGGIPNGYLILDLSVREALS


What was measured:
[1] = target: T2, human MSLN on OVCAR3 tumor cells (human, UniProt Q13421 296-598); assay: FACS, OVCAR3 cells
T2 construct: whole, on cells; also called human MSLN protein

[2] = target: T3, human MSLN-R3 on HEK293T-hMSLN-R3 recombinant cells (human, UniProt Q13421 487-606); assay: FACS, HEK293T-hMSLN-R3 cells
T3 construct: the C-terminal limit is uncertain; also called human MSLN-R3 membrane protein

[3] = target: T1, monkey MSLN on HEK293T-monkey MSLN …; assay: FACS, HEK293T-monkey MSLN cells
[4] = target: T4, human MSLN-hFc recombinant protein (human, UniProt Q13421 296-580); assay: SPR (Biacore 8K), MSLN-hFc captured, antibody injected
T4 construct: Captured by an anti-human IgG antibody on the chip; also called human MSLN protein; Acro MSN-H5253
T4 sequence (Q13421 other isoform, or with tags, fused parts or gaps): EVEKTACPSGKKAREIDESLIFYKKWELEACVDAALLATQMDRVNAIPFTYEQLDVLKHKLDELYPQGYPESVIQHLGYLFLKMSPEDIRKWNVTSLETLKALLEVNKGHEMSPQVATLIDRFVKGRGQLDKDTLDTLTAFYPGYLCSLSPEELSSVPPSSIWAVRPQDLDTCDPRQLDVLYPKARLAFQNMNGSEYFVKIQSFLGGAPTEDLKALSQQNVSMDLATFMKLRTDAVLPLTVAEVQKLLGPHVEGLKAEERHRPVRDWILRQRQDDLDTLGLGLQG

T3 sequence (Q13421 495-614): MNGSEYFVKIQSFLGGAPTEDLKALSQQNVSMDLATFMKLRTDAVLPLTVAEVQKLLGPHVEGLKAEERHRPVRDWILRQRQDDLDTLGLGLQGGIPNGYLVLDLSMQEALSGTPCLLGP
T2 sequence (Q13421 other isoform, or with tags, fused parts or gaps): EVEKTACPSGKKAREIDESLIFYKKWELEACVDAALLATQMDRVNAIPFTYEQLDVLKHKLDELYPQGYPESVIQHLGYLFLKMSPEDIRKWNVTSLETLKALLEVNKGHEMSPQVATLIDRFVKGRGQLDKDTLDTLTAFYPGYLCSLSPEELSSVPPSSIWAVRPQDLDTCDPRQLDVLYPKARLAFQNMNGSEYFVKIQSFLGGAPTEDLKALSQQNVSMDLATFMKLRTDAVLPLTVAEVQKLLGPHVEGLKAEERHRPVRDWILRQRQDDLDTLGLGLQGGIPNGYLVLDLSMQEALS

Binder | EC50 [1] | Maximum_MFI [1] | EC50 [2] | Maximum_MFI [2] | EC50 [3] | Maximum_MFI [3] | Kd [4] | koff [4] | kon [4]
F2.23.12-H5 (scFv, not shown: small tags and cut ends, also called S009-F2.23.12 humanized antibody VH2 + VL1) scFv: EVQLVQSGAEVKKPGASVKVSCKASGYTFTNYWMHWVRQAPGQGLEWMGNINPSNGGPYYNERFRSRVTMTVDKSTSTAYMELSSLRSEDTAVYYCARPYYGSSYGYFDYWGQGTTVTVSSGGGGSGGGGSGGGGSDIQMTQSPSSLSASVGDRVTITCKASQDINKYIAWYQQKPGKAPKLLIHYTSELQPGVPSRFSGSGSGTDFTFTISSLQPEDIATYYCLQYANPLRTFGGGTKVEIK | 11.3 nM | 3340 MFI | 4.16 nM | 4730 MFI | 5.86 nM | 17700 MFI | 7.74 nM | 0.000473 s⁻¹ | 61200 M⁻¹ s⁻¹
F2.23.12-H1 (scFv, not shown: small tags and cut ends, also called S009-F2.23.12 humanized antibody VH1 + VL1) scFv: EVQLVQSGAEVKKPGASVKVSCKASGYTFTNYWMHWVRQAPGQGLEWMGNINPSNGGPYYNERFRSRVTMTVDKSTSTVYMELSSLRSEDTAVYYCARPYYGSSYGYFDYWGQGTTVTVSSGGGGSGGGGSGGGGSDIQMTQSPSSLSASVGDRVTITCKASQDINKYIAWYQQKPGKAPKLLIHYTSELQPGVPSRFSGSGSGTDFTFTISSLQPEDIATYYCLQYANPLRTFGGGTKVEIK | 9.56 nM | 3250 MFI | 4.7 nM | 4720 MFI | 6.72 nM | 16000 MFI | – | – | –
F2.23.12-H13 (scFv, not shown: small tags and cut ends, also called S009-F2.23.12 humanized antibody VH4 + VL1) scFv: EVQLVQSGAEVKKPGASVKVSCKASGYTFTNYWMHWVRQAPGQGLEWMGNINPSQGGPYYNERFRSRVTMTVDKSTSTAYMELSSLRSEDTAVYYCARPYYGSSYGYFDYWGQGTTVTVSSGGGGSGGGGSGGGGSDIQMTQSPSSLSASVGDRVTITCKASQDINKYIAWYQQKPGKAPKLLIHYTSELQPGVPSRFSGSGSGTDFTFTISSLQPEDIATYYCLQYANPLRTFGGGTKVEIK | 38.6 nM | 3110 MFI | 8.3 nM | 4710 MFI | 10.9 nM | 17600 MFI | 31.1 nM | 0.000482 s⁻¹ | 15500 M⁻¹ s⁻¹
F2.23.12-H4 (scFv, not shown: small tags and cut ends, also called S009-F2.23.12 humanized antibody VH1 + VL4) scFv: EVQLVQSGAEVKKPGASVKVSCKASGYTFTNYWMHWVRQAPGQGLEWMGNINPSNGGPYYNERFRSRVTMTVDKSTSTVYMELSSLRSEDTAVYYCARPYYGSSYGYFDYWGQGTTVTVSSGGGGSGGGGSGGGGSDIQMTQSPSSLSASVGDRVTITCKASQDINKYIAWYQHKPGKAPKLLIHYTSELQPGVPSRFSGSGSGRDYTFTISSLQPEDIATYYCLQYANPLRTFGGGTKVEIK | 9.9 nM | 3630 MFI | 2.67 nM | 4760 MFI | 2.5 nM | 14500 MFI | – | – | –
F2.23.12-H8 (scFv, not shown: small tags and cut ends, also called S009-F2.23.12 humanized antibody VH2 + VL4) scFv: EVQLVQSGAEVKKPGASVKVSCKASGYTFTNYWMHWVRQAPGQGLEWMGNINPSNGGPYYNERFRSRVTMTVDKSTSTAYMELSSLRSEDTAVYYCARPYYGSSYGYFDYWGQGTTVTVSSGGGGSGGGGSGGGGSDIQMTQSPSSLSASVGDRVTITCKASQDINKYIAWYQHKPGKAPKLLIHYTSELQPGVPSRFSGSGSGRDYTFTISSLQPEDIATYYCLQYANPLRTFGGGTKVEIK | 14.5 nM | 3040 MFI | 5.57 nM | 4590 MFI | 5.22 nM | 14700 MFI | – | – | –
F2.23.12-H16 (scFv, not shown: small tags and cut ends, also called S009-F2.23.12 humanized antibody VH4 + VL4) scFv: EVQLVQSGAEVKKPGASVKVSCKASGYTFTNYWMHWVRQAPGQGLEWMGNINPSQGGPYYNERFRSRVTMTVDKSTSTAYMELSSLRSEDTAVYYCARPYYGSSYGYFDYWGQGTTVTVSSGGGGSGGGGSGGGGSDIQMTQSPSSLSASVGDRVTITCKASQDINKYIAWYQHKPGKAPKLLIHYTSELQPGVPSRFSGSGSGRDYTFTISSLQPEDIATYYCLQYANPLRTFGGGTKVEIK | 80.4 nM | 2920 MFI | 9.39 nM | 4010 MFI | 12.3 nM | 16100 MFI | – | – | –
F2.39.3-H8 (scFv, not shown: small tags and cut ends, also called S009-F2.39.3 humanized antibody VH2 + VL4) scFv: EVQLVQSGAEVKKPGASVKVSCKASGYTFTNYWMHWVRQAPGQGLEWMGNINPSSGDSYYNERFMSRVTMTVDKSTSTAYMELSSLRSEDTAVYYCARSGGLWLAFWGQGTLVTVSSGGGGSGGGGSGGGGSDIVMTQTPLSLSVTPGQPASISCKSSQTLLNSVSQNNYLAWYQQKPGQSPTLLVYFASTRESGVPDRFSGSGSGTDFTLKISRVEAEDVGVYYCQQHYRTPYTFGGGTKVEIK | 18.6 nM | 4120 MFI | 6.91 nM | 5600 MFI | 12.8 nM | 26000 MFI | – | – | –
F2.39.3-H2 (scFv, not shown: small tags and cut ends, also called S009-F2.39.3 humanized antibody VH1 + VL2) scFv: EVQLVQSGAEVKKPGASVKVSCKASGYTFTNYWMHWVRQAPGQGLEWMGNINPSSGDSYYNERFMSRVTMTVDKSTSTVYMELSSLRSEDTAVYYCARSGGLWLAFWGQGTLVTVSSGGGGSGGGGSGGGGSDIVMTQSPDSLAVSLGERATINCKSSQTLLNSVSQNNYLAWYQQKPGQSPTLLIYFASTRESGVPDRFSGSGSGTDFTLTISSLQAEDVAVYYCQQHYRTPYTFGGGTKVEIK | 54 nM | 4220 MFI | 6.33 nM | 5970 MFI | 8.74 nM | 24900 MFI | 0.985 nM | 3.39e-05 s⁻¹ | 34400 M⁻¹ s⁻¹
F2.39.3-H9 (scFv, not shown: small tags and cut ends, also called S009-F2.39.3 humanized antibody VH3 + VL1) scFv: EVQLVQSGAEVKKPGASVKVSCKASGYTFTNYWMHWVRQAPGQGLEWMGNINPSSGDSYYNERFMSRVTMTVDKSTSTAYMELSSLRSEDTAVYYCARSGGLWLAFWGPGTLVTVSSGGGGSGGGGSGGGGSDIVMTQSPDSLAVSLGERATINCKSSQTLLNSVSQNNYLAWYQQKPGQSPKLLIYFASTRESGVPDRFSGSGSGTDFTLTISSLQAEDVAVYYCQQHYRTPYTFGGGTKVEIK | 17.2 nM | 4300 MFI | 5.66 nM | 5560 MFI | 7.73 nM | 23300 MFI | 0.734 nM | 3.19e-05 s⁻¹ | 43500 M⁻¹ s⁻¹
